Data taken from patent US8889392B2, “Monolignol 4-O-methyltransferases and uses thereof” (Brookhaven Science Associates, LLC, priority 2010, dated 2014).
Numbering of substitutions follows the chain as printed. In names and notes the source's numbering stands. Several values for one entry are separate records, joined by “and”; a condition that tells them apart may be missing. Equal values may be shown once.

Columns and labels:
Format in all cases: biochemical
horseradish peroxidase = molecular target: T1, horseradish peroxidase (Armoracia rusticana, UniProt P00433); experiment: Peroxidase-catalyzed dehydrogenative polymerization in vitro; conditions: incubation with horseradish peroxidase and H2O2
T1 sequence (P00433 31-338 limits assumed): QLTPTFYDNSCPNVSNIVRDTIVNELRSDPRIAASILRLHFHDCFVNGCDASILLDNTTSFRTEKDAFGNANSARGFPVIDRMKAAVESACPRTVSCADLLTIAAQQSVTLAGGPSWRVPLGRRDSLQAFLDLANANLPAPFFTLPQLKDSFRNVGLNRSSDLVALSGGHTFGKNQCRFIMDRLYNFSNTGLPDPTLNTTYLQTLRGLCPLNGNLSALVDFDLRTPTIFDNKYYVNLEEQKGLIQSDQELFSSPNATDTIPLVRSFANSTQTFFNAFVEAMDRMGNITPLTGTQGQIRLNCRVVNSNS
From the text: In vitro dehydrogenative polymerization is commonly used as a biomimetic model to explore in vivo lignin formation. Using the novel mutant variants, we produced methylated monolignol—the 4-O-methoxy-coniferyl alcohol, and subjected it to peroxidase-catalyzed dehydrogenative polymerization, compared to the classic p-coniferyl alcohol. […] The oligomer products include a predominant dimer, the β-5 inter subunit linkage, G(8-5)G, and a few minor peaks of the G(8-O-4)G and G(8-8)G dimers.

[1] = Kinetic parameters for 4-O-methylation of sinapyl alcohol; conditions: for Km / Vmax: substrate sinapyl alcohol, 4-O-methylation
[2] = Substrate specificity of mutant variants; conditions: p-hydroxycinnamyl alcohols and p-hydroxycinnamaldehydes
From the text: Kinetically, the mutant T133L/E165I/F175I equally preferred two major types of monolignols in angiosperms, i.e., coniferyl and sinapyl alcohols, whereas the T133L/L139Q/E165F variant favored coniferyl slightly over the sinapyl alcohol.

[3] = Kinetic parameters for 4-O-methylation of coniferyl alcohol; conditions: for Km / Vmax: substrate coniferyl alcohol, 4-O-methylation
Description: E. coli transformants were inoculated in 96 well plates. Protein production was induced with 0.2 mM isopropyl β-D-1-thiogalactopyranoside, and the harvested cell cultures were lysed with 60 μl of BugBuster solution per well (Novagen). Enzymatic activity was screened using the lysates directly or after purification of the recombinant protein in a 96 well purification plate.
Screening was performed in a polypropylene microplate (Bio-Rad) containing 50 μl of the reaction in each well, 500 μM p-coniferyl-alcohol substrates, and 500 μM S-adenosyl-L-methionine augmented with (isotopic assay) or without (LC-MS assay) 0.005 μCi of [methyl-^14C]S-adenosyl-L-methionine, and 20 μl of lysates or purified protein (Ni^+ column eluate). (see Bhuiya, M. W. and Liu, C. J. (2010) J. Biol. Chem. 285:277-285 and its supplemental material).
To further optimize the catalytic efficiency of MOMT on the desired para-methylation of monolignols, based on the crystal structure of MOMT3, we identified additional amino acid residues that either directly contact or are proximate to the bound coniferyl alcohol, particularly the residues near the 3-methoxy-buried pocket. They are F130, A134, V138, L139, F157, Y161, N164, F166, Y168, H169, H173, F179, M183, N186, T319, L322, M323, A325, Y326, and N327. We then carried out the next round saturation mutagenesis on the recognized amino acid sites using MOMT3 as the parental template. […] The MOMT4 enzyme predominantly reacted with coniferyl and sinapyl alcohols, with preference for the latter, while the MOMT5 favors for coniferyl alcohol.

## COc1cc(/C=C/CO)ccc1O [coniferyl alcohol, p-coniferyl alcohol]
Horseradish peroxidase
  conversion and oligomerization: oxidized and conjugated, yielding several oligolignols

B1: T133I-E165I-F175I: IEMT triple mutant, monolignol 4-O methyltransferase-3 (protein, listed as Clarkia breweri)
chain: MGSTGNAEIQIIPTHSSDEEANLFAMQLASAAVLPMALKAAIELDVLEIMAKSVPPSGYISPAEIAAQLPTTNPEAPVMLDRVLRLLASYSVVTYTLRELPSGKVERLYGLAPVCKFLTKNEDGVSLAPFLLIATDKVLLEPWFYLKDAILEGGIPFNKAYGMNIFDYHGTDHRINKVFNKGMSSNSTITMKKILEMYNGFEGLTTIVDVGGGTGAVASMIVAKYPSINAINFDLPHVIQDAPAFSGVEHLGGDMFDGVPKGDAIFIKWICHDWSDEHCLKLLKNCYAALPDHGKVIVAEYILPPSPDPSIATKVVIHTDALMLAYNPGGKERTEKEFQALAMASGFRGFKVASCAFNTYVMEFLKTA
[1]; sinapyl alcohol
  catalytic efficiency: 1463 M⁻¹ s⁻¹
  fold increase of catalytic efficiency compared with the wild-type enzyme: more than 70 fold
[1]
  Km: 120 µM and 119 µM
  Vmax: 275 ± 10 nmol/mg/min and 260 ± 6 nmol/mg/min
[2]
  activity for lignin monomeric precursors: high activities
[3]; coniferyl alcohol
  catalytic efficiency: 1245 M⁻¹ s⁻¹
  fold increase of catalytic efficiency compared with the wild-type enzyme: more than 70 fold
[3]
  Km: 279 µM and 199 µM
  Vmax: 556 ± 35 nmol/mg/min and 371 ± 15 nmol/mg/min

B2: IEMT wt: C. breweri (iso)eugenol 4-O-methyltransferase, wild type (GenBank U86760.1, SEQ ID NO: 1) (protein, listed as Clarkia breweri)
chain: B1 chain with I133T, I165E, I175F
[1]
  Km: 1500 ± 214 µM
  Vmax: 45 ± 4 nmol/mg/min
[2]
  activity for lignin monomeric precursors: barely measurable
[3]
  Km: 1590 ± 182 µM
  Vmax: 42 ± 4 nmol/mg/min

B3: T133L/L139Q/E165F: IEMT triple mutant variant (protein, listed as Clarkia breweri)
chain: B1 chain with I133L, L139Q, I165F, I175F
[2]
  activity for lignin monomeric precursors: high activities

B4: T133I-E165I-F175I-F166W-T135N: IEMT penta mutant derived from MOMT3 (protein)
chain: B1 chain with T135N, F166W
[1]
  Km: 54 ± 14 µM
  Vmax: 115 ± 9 nmol/mg/min
[3]
  Km: 167 ± 11 µM
  Vmax: 431 ± 12 nmol/mg/min
